Values quoted from earlier work as cited in paper PMC12093155.

Target: Prx1 (Homo sapiens) (UniProt Q06830)
Sequence (Q06830 2-199): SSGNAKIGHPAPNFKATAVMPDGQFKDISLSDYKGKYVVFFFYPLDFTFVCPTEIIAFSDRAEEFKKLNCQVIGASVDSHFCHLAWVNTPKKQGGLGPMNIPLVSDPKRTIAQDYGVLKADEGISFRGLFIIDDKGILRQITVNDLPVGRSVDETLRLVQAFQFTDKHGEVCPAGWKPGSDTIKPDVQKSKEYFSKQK

Srx, sequence (Q9BYN0 whole entry): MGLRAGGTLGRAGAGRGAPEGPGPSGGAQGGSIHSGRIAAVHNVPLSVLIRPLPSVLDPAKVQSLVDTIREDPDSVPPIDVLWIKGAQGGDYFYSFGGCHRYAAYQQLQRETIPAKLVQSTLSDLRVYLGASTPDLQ

Kd: 7 µM
Substance: Srx (from UniProt Q9BYN0)
